The values that follow come from patent EP4796567A2 (Nepenthe Bioscience, LLC, dated 2026).

Substitutions are numbered along the chain they refer to. Some results are limits rather than exact numbers.

Sequences and labels used below:
T1: CD79 (UniProt P11912 33-143; P40259 29-159, limits assumed)
T1 construct: also called CD79 antigen; soluble biotinylated CD79 antigen
T1 sequence (looked up) 1: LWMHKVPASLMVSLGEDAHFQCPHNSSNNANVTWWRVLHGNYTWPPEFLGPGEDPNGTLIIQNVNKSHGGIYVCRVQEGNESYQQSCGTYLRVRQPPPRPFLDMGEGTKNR
T1 sequence (looked up) 2: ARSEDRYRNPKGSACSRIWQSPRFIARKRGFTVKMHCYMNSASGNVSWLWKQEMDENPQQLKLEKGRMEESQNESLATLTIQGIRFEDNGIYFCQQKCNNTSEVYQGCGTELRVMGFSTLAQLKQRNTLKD

B1: humanized anti-CD79 antibody H1L2 (antibody, V domains shown)
VH: QVQLVQSGAEVKKPGASVKVSCKASGYAFSYSWMNWVRQAPGQGLEWMGRIYPENGDTNYNGKFKGRVTMTRDTSISTAYMELSRLRSDDTAVYYCARWVYGYPHFDYWGQGTLVTVSS
VL: DVVMTQSPLSLPVTLGQPASISCKSSQSLLDSDGKTYLNWLQQRPGQSPRRLIYLVSKLDSGVPDRFSGSGSGTDFTLKISRVEAEDVGVYYCWQGTHFPFTFGGGTKVEIK
notes: also called LB495/PRI47; PRI43/PRI47
B2: humanized anti-CD79 antibody LB517/LB519 (antibody, V domains shown)
VH: B1 VH with Y103L
VL: B1 VL with F99L
notes: Full length IgG produced from 293 cells; also called hCur14 FALA
B3: engineered anti-CD79 antibody LB630/519 (antibody, V domains shown)
VH: B1 VH with N55S, Y103L
VL: B1 VL with F99L
notes: First NG motif of VH CDR2 engineered to NS; Produced in 293 cells by transient transfection; also called LB630/LB519
B4: engineered anti-CD79 antibody LB631/519 (antibody, V domains shown)
VH: B1 VH with N61A, Y103L
VL: B1 VL with F99L
notes: Second NG motif of VH CDR2 engineered to NA; Produced in 293 cells by transient transfection; also called LB631/LB519
B5: engineered anti-CD79 antibody LB632/519 (antibody, V domains shown)
VH: B1 VH with N55S, N61A, Y103L
VL: B1 VL with F99L
notes: Both NG motifs of VH CDR2 engineered; Produced in 293 cells by transient transfection; also called LB632/LB519
B6: affinity matured anti-CD79 antibody LB517/520 (antibody, V domains shown)
VH: B1 VH with Y103L
VL: B1 VL with F99R
notes: Full length IgG produced from 293 cells; also called LB517/LB520
B7: affinity matured anti-CD79 antibody LB495/520 (antibody, V domains shown)
VH: B1 VH
VL: B1 VL with F99R
notes: Full length IgG produced from 293 cells; also called LB495/LB520
B8: affinity matured anti-CD79 antibody LB495/518 (antibody, V domains shown)
VH: B1 VH
VL: B1 VL with F99I
notes: Full length IgG produced from 293 cells; also called LB495/LB518
B9: affinity matured anti-CD79 antibody LB517/PRI47 (antibody, V domains shown)
VH: B1 VH with Y103L
VL: B1 VL
notes: Full length IgG produced from 293 cells
B10: affinity matured anti-CD79 antibody LB495/519 (antibody, V domains shown)
VH: B1 VH
VL: B1 VL with F99L
notes: Full length IgG produced from 293 cells; also called LB495/LB519
B11: affinity matured anti-CD79 antibody LB495/521 (antibody, V domains shown)
VH: B1 VH
VL: B1 VL with F99V
notes: Full length IgG produced from 293 cells; also called LB495/LB521
B12: affinity matured anti-CD79 antibody LB517/521 (antibody, V domains shown)
VH: B1 VH with Y103L
VL: B1 VL with F99V
notes: Full length IgG produced from 293 cells; also called LB517/LB521
B13: affinity matured anti-CD79 antibody LB517/518 (antibody, V domains shown)
VH: B1 VH with Y103L
VL: B1 VL with F99I
notes: Full length IgG produced from 293 cells; also called LB517/LB518
B14: chimeric anti-CD79 antibody HcLc (antibody, V domains shown)
VH: QVQLQQSGPELVKPGASVKISCKASGYAFSYSWMNWVKQRPGKGLEWIGRIYPENGDTNYNGKFKGKVTLTADKSSSTAYMQLSSLTSEDSAVYFCARWVYGYPHFDYWGQGTTLTVSS
VL: not shown
notes: Mouse VH fused to human IgG2 CH1, CH2 and CH3 domains; mouse VL fused to a human kappa CL domain
B15: humanized anti-CD79 antibody H2L3 (antibody, V domains shown)
VH: B1 VH with R72A
VL: B1 VL with R50K
B16: humanized anti-CD79 antibody H3L3 (antibody, V domains shown)
VH: B1 VH with M48I, M70L, R72A, T74K
VL: B1 VL with R50K
B17: humanized anti-CD79 antibody H2L2 (antibody, V domains shown)
VH: B1 VH with R72A
VL: B1 VL
B18: humanized anti-CD79 antibody H3L2 (antibody, V domains shown)
VH: B1 VH with M48I, M70L, R72A, T74K
VL: B1 VL
B19: humanized anti-CD79 antibody H1L1 (antibody, V domains shown)
VH: B1 VH
VL: B1 VL with L41F
B20: humanized anti-CD79 antibody H1L3 (antibody, V domains shown)
VH: B1 VH
VL: B1 VL with R50K
B21: humanized anti-CD79 antibody H3L1 (antibody, V domains shown)
VH: B1 VH with M48I, M70L, R72A, T74K
VL: B1 VL with L41F
B22: humanized anti-CD79 antibody H2L1 (antibody, V domains shown)
VH: B1 VH with R72A
VL: B1 VL with L41F

The target in the first assay is T1, CD79. Put plainly: antigen binding kinetics; method not named (antibody is the 'Loading Sample').
Molecule B1 gave a Kd of 9.22 nM, a koff of 0.000384 s⁻¹ and a kon of 41700 M⁻¹ s⁻¹.
Molecule B2 came in with a Kd of 0.706 nM, a koff of 4.14e-05 s⁻¹ and a kon of 58700 M⁻¹ s⁻¹.
The molecule B3 yielded a Kd of under 0.001 nM, a koff of under 1e-07 s⁻¹ and a kon of 55800 M⁻¹ s⁻¹.
The like results for B4 were, in that order, 1.04 nM, 6.1e-05 s⁻¹ and 58600 M⁻¹ s⁻¹.
The like results for B5 were, in that order, 0.837 nM, 5.11e-05 s⁻¹ and 61000 M⁻¹ s⁻¹.

A further assay concerns the target T1, CD79. The experiment in a line: binding kinetics of full length IgG to CD79; method not named (antibody is the 'Loading Sample').
With B1, the dissociation constant Kd is 5.1 nM, the koff turned out to be 0.000429 s⁻¹ and the kon is 84100 M⁻¹ s⁻¹.
On the same counts, the results for B2 are 2 nM, 0.000159 s⁻¹ and 79700 M⁻¹ s⁻¹.
In turn, B6 yielded a dissociation constant (Kd) of 2.4 nM, a koff of 0.000234 s⁻¹ and a kon of 97800 M⁻¹ s⁻¹.
On the same counts, the results for B7 are 3.76 nM, 0.000374 s⁻¹ and 99600 M⁻¹ s⁻¹.
On the same counts, the results for B8 are 3.64 nM, 0.000332 s⁻¹ and 91200 M⁻¹ s⁻¹.
The like results for B9 were, in that order, 3.55 nM, 0.000311 s⁻¹ and 87500 M⁻¹ s⁻¹.
The molecule B10 had a Kd of 3.14 nM, a koff of 0.000252 s⁻¹ and a kon of 80300 M⁻¹ s⁻¹.
B11: the Kd is 3.65 nM, the koff came out at 0.000362 s⁻¹ and the kon worked out at 99100 M⁻¹ s⁻¹.
The like results for B12 were, in that order, 2.3 nM, 0.000201 s⁻¹ and 87500 M⁻¹ s⁻¹.
B13 had a Kd of 2.24 nM, a dissociation rate constant (koff) of 0.000199 s⁻¹ and a kon of 88500 M⁻¹ s⁻¹.

For the next assay, the target named is T1, CD79. Put plainly: binding kinetics to CD79; method not named (antibody is the 'Loading Sample').
The molecule B14 yielded a dissociation constant Kd of 60 nM, a koff of 0.0056 s⁻¹ and an association rate constant (kon) of 93000 M⁻¹ s⁻¹.
Molecule B1 yielded a Kd of 45 nM, a koff of 0.0041 s⁻¹ and a kon of 91000 M⁻¹ s⁻¹.
Consider B15, for which the Kd worked out at 61 nM, the dissociation rate constant (koff) worked out at 0.0051 s⁻¹ and the kon was found to be 84000 M⁻¹ s⁻¹.
Regarding B16, the equilibrium dissociation constant (Kd) came to 130 nM, the koff was 0.011 s⁻¹ and the association rate constant (kon) came to 79000 M⁻¹ s⁻¹.
In turn, B17 registered a Kd of 46 nM, an off-rate (koff) of 0.0046 s⁻¹ and a kon of 100000 M⁻¹ s⁻¹.
On the same counts, the results for B18 are 140 nM, 0.0086 s⁻¹ and 61000 M⁻¹ s⁻¹.
Consider B19, for which the Kd was determined as 59 nM, the koff came out at 0.0054 s⁻¹ and the kon was determined as 92000 M⁻¹ s⁻¹.
On the same counts, the results for B20 are 49 nM, 0.004 s⁻¹ and 82000 M⁻¹ s⁻¹.
B21: binding was characterised by a dissociation constant (Kd) of 290 nM, the koff was determined as 0.013 s⁻¹ and the on-rate constant (kon) turned out to be 43000 M⁻¹ s⁻¹.
In the case of B22, the Kd worked out at 90 nM, the koff was 0.0071 s⁻¹ and the on-rate constant (kon) came to 79000 M⁻¹ s⁻¹.

As usually defined, the Kd is the equilibrium constant for the complex coming apart. Lower therefore signals tighter binding. In general, koff refers to the first-order rate constant of dissociation. The low end stands for a long-lived complex, the high end for a short-lived complex. As usually defined, the kon is the rate constant with which the complex forms.
